B1: mAb clone 4H11 (antibody, V domains shown)
VH: EVKLVESGGGLVKPGGSLKLSCAASGFAFSNYDMSWVRQTPEKRLEWVATIRSDDSYTYYPDSVKGRFTISRDNARNTLYLQMSSLRSEDTAFYYCARREGNYAMDYWGQGTSVTVSS
VL: DIQMTQSPASLSVSVGETVTITCRASENIYSYLAWYQQKKGKSPQLLVYAATNLGDGVPTRFSGSGSGTQYSLKINSLQSEDFGSYYCQHFWGNPLTFGAGTKLELKR
notes: mouse hybridoma mAb
B2: mAb clone 20H5 (antibody, V domains shown)
VH: QVQLKESGPDLVAPSQSLSITCTVSGFSLTSYGVHWVRQPPGKGLEWLVVIWSDGSTTNNSPLKSRLSISKDNSKSQVFLKMNSLQTDDTAMYYCARHWGTTVVDAMDYWGQGTSVTVSS
VL: DIQMTQTTSSLSASLGDRVIISCRASQDIRNYLNWYQQKPDGTVKLLIYYTSQLHSGVPSRFSGSGSGTDYSLTINNLSEQEDIATYFCQQYDTLPWTFGGGTKLEIKR
notes: mouse hybridoma mAb from fusion 10 (immunogen fully human PIN574 Id protein)
B3: mAb clone 10H7 (antibody, V domains shown)
VH: EVQLVESGGGLVKPGGSLKLSCTASGFTFSSYAMSWVRQSPEKRLEWVAEISSGGIHTYYSDTVTGRFSISRDNAKNSTLYLEMNSLRSEDTAIYYCARETTGTWGQGTLVTVSA
VL: QIVLTQSPAIMSASPGEKVTMTCSVSSSITYMHWFRQKPGTSPKLWIYTTSNLASGVPARFSGSGSGTSYSLTISRMEAEDAATYYCQQRSRYPFTFGSGTKLEIKR
notes: mouse hybridoma mAb from fusion 14 (immunogen PIN149 chimera-KLH)
B4: mAb clone 12C3 (antibody, V domains shown)
VH: EVKLVESGGGLVQPGGSLSLSCAASGFTYTDYYMNWVRQPPGKALEWLALIRNKANGYTTEYSASLKGRFTISRDNSQSILYLQMNALRAEDSATYYCVRENINYYFDYWGQGTTLTVSS
VL: DIVLTQSPASLAVSLGQRATISCRASESVEYFGASLMQWYQQKSGQPPKLLIRAATNVESGVPARFSGSGSGTDFSLNIHPVEEDDIAMYFCQQSRKVPWTFGGGTKLEIKR
notes: mouse hybridoma mAb from fusions 20/21 (PIN628 V regions as immunogen)
B5: mAb clone 3C9 (antibody, V domains shown)
VH: EVQLQQSGPELEKPGASVKISCKASGYSFTAYNMNWVKQNNGKSLEWIGNIDPYHGGTNYNQKFKGKATLTVDKSSSTAYMQLKSLTSEDYAVYYCARGGGDWSWFAYWGQGTLVTVSA
VL: DIVMTQSHKFMSTSVGDRVSITCKASQDVNTAVAWYQQKPGQSPKVLIYWASNRHTGVPDRFTGSGSGTDYTLTISSMQAEDLALYYCHQHYSTPWTFGGGTKLEIER
B6: mAb clone 15E8 (antibody, V domains shown)
VH: QVQLQQPGAELVMPGASVKMSCKASGYTFTDYWMHWVKQRPGQGLEWIGTIDTSDSYTNYNQKFKGKATLTVDESSSTAYMQLSSLTSEDSAVYYCVRWKKYGNYFFDYWGQGTTLTVSS
VL: DIVMTQSHKFMSTSVGDRVSITCKASQDVNTAVAWYQQKPGQSPKLLIYWASTRHTGVPDRFTGSGSGTDFSLTISSVQAEDLGLYYCQQCYSTPYAFGGGTKLEIKR
notes: mouse hybridoma mAb from fusion 16 (immunogen unconjugated fully human PIN116)

Legend:
[1] = target: T1, PIN574 fully human Id protein (HV4-39 / LV1-40) (human); assay: ELISA
T1 construct: patient tumour-derived idiotype immunoglobulin used as antigen; fully human form; also called Immunogen (for 20H5); not shown: human immunoglobulin heavy chain constant region, isotype G3 (HCG3); human lambda light chain constant region (LC)
T1 sequence (VH, as listed by the source, chain 1 of 2): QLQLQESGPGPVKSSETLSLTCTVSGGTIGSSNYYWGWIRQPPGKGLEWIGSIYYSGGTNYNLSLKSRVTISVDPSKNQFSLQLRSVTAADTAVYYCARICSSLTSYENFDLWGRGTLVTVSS
T1 sequence (VL, as listed by the source, chain 2 of 2): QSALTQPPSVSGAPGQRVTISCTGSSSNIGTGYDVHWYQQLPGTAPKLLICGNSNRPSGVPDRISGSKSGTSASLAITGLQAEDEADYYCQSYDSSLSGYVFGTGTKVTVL
Source text: (§1) Before specificity screening, all of the clonal immunogen-positive hybridoma supernatants were re-screened on the immunogen, a non-family member Id protein, and KLH, if animals were immunized with Id protein that has been conjugated KLH. As described above, this screen identifies HC-specific clones but not mAbs against the light chain constant region. Clones identified positive to the immunogen and KLH were […]. Those found positive to the immunogen but not to the non-family member Id protein or KLH were tittered on the immunogen. In addition to normalizing for different binding affinities and concentrations, each hybridoma supernatant was titered on the fully human form of the Id protein used as the immunogen(s) for the V regions. The titer or dilution resulting in an ELISA absorbance of 2.5 to 3 OD after 30 min. incubation time was then used. Hybridoma specificity was determined by screening against available Id proteins expressing the same HV and KV or LV as well as different HV, KV and LV. The final ELISA results are expressed as follows: 0 (<0.5 OD),1 (0.5-1.0 OD), or 4 (1-4 OD). Positive hybridoma supernatants are categorized according to specificity: anti-Id, anti-constant region (HC, KC or LC), or V region (HV, KV, LV family or family member).
(§2) In general, the fully human Id protein or proteins containing the immunogen V regions were coated onto 96-well ELISA plates at 2.5-5 ug/mL in carbonate buffer pH 9.6 and incubated at 4° C. for up to 14 days. On the day of the ELISA, plates were brought to RT and blocked with Tris-Tween-20, pH 7.6 for 15-60 min. at RT. Following a NaCl and Triton X-100 wash, diluted hybridoma cell culture supernatants were incubated overnight at 4° C. Hybridoma supernatant dilutions ranged from 1:2 to 1:25 and were prepared in PBS with 5% BSA. Plates were washed and incubated with HRP-conjugated goat anti-mouse IgG-specific detecting antibody. A chromogenic substrate (TMB) was used to measure the amount of mouse antibody bound to each well. The reaction was stopped at or before 30 minutes with IN H2SO4 and plates were read immediately. Absorbency readings at 450 nm ranging between 0-4 OD and using Molecular Devices plate reader and SOFTMAX PRO software.

662 = target: T2, 662; assay: ELISA
T2 construct: also called PIN662; PIN662 fully human Id protein (HV3-48 / LV2-8)
T2 sequence (heavy, as listed by the source): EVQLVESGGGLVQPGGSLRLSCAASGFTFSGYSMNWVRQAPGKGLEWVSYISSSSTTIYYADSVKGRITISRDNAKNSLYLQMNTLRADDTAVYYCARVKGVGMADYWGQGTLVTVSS
Source text: as §1, §2

116 = target: T3, 116; assay: ELISA
T3 construct: immunogen of fusions 15, 16 and 18; coated in its fully human form; also called PIN116; PIN116 fully human Id protein (HV1-46 / LV2-8)
T3 sequence (VH, as listed by the source, chain 1 of 2): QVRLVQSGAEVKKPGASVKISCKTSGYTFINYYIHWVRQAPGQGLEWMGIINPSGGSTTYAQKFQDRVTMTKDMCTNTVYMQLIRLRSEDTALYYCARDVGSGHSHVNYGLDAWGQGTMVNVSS
T3 sequence (V domain, as listed by the source, chain 2 of 2): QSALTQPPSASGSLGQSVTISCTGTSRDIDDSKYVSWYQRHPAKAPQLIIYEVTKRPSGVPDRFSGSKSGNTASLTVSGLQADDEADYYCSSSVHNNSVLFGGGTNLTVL
Source text: as §1, §2

[2] = target: T1, PIN574 fully human Id protein (HV4-39 / …); assay: SPR (BIACORE 2000), mAb captured on anti-mouse surface, fully human Id protein as analyte, 25 C, single site model
Method: (§3) Binding constants were also determined for three of the sequenced clones (3C9, 10H7, and 20H5), as well as for two additional clones (6C9 and 15E1). The association and disassociation rates were measured by surface plasmon resonance using a BIACORE 2000 machine.
(§4) In addition, based on ELISA results, PIN185 was used as a positive control Id protein for 10H7 and 15E1 and a negative control Id protein for 3C9 and 6C9 and PIN149 was used as a non-binding Id protein for 20H5. Each mAb was captured onto an anti-mouse surface and tested for binding to the fully human Id protein. Following the mAb capture phase of the assay for the (@2 ug/ml), the fully human Id proteins were all diluted to a starting concentration of 250 nM and tested in a three fold dilution series. Each concentration was tested in duplicate. The running buffer contained PBS plus 0.005% tween-20 and 0.1 mg/ml BSA as a carrier. Binding data were collected at 25° C. […] The other data sets all fit well to a single site interaction model.

[3] = target: T4, PIN149 fully human Id protein (HV3-23 / KV4-1) (human); assay: SPR (BIACORE 2000), mAb captured on anti-mouse surface, fully human Id protein as analyte
T4 construct: patient tumour-derived idiotype immunoglobulin used as antigen; recombinant, two identical heavy and two identical light chains; also called Immunogen (for 3C9, 6C9, 10H7, 15E1); not shown: human immunoglobulin heavy chain constant region, isotype G3 (HCG3); human kappa light chain constant region (KC)
T4 sequence (VH, as listed by the source, chain 1 of 2): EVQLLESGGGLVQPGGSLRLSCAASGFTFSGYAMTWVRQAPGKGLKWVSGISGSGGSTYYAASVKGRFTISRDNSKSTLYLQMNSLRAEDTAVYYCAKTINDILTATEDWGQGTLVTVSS
T4 sequence (VL, as listed by the source, chain 2 of 2): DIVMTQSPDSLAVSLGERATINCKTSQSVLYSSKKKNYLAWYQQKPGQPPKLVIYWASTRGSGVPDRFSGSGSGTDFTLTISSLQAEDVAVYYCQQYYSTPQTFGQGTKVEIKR
Method: as §3, §4

[4] = target: T4, PIN149 fully human Id protein (HV3-23 / …); assay: SPR (BIACORE 2000), mAb captured on anti-mouse surface, fully human Id protein as analyte, 25 C, single site model
Method: as §3, §4

[5] = target: T5, PIN185 fully human Id protein (human); assay: as above
T5 construct: patient idiotype immunoglobulin used as control antigen
Method: as §3, §4

[6] = target: T4, PIN149 fully human Id protein (HV3-23 / …); assay: ELISA
Source text: as §1, §2

628 = target: T6, 628; assay: ELISA
T6 construct: immunogen of fusions 20 and 21; also called PIN628; PIN628 fully human Id protein (HV3-7 / KV4-1)
T6 sequence (VH, as listed by the source, chain 1 of 2): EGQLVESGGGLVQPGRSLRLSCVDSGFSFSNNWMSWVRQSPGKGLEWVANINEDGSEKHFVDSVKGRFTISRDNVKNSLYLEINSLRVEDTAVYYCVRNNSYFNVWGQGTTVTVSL
T6 sequence (VL, as listed by the source, chain 2 of 2): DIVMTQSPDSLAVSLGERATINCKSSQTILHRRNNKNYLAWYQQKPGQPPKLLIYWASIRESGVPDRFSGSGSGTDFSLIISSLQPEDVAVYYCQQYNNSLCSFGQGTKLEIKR
Source text: as §1, §2

913 = target: T7, 913; assay: ELISA
T7 construct: also called PIN913; PIN913 fully human Id protein (HV4-59 / KV4-1)
T7 sequence (heavy, as listed by the source): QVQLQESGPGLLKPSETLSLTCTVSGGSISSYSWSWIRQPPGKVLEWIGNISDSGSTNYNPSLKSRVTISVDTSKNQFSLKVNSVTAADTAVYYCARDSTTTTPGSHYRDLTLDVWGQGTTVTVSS
Source text: as §1, §2

[7] = target: T5, PIN185 fully human Id protein; assay: ELISA
Source text: as §1, §2

647 = target: T8, 647; assay: ELISA
T8 construct: immunogen of fusion 17; also called PIN647; PIN647 fully human Id protein (HV3-48 / LV2-14)
T8 sequence (VH, as listed by the source, chain 1 of 2): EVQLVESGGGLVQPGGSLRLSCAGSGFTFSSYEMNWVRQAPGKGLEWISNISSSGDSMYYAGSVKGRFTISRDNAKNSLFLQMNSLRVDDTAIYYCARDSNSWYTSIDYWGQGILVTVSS
T8 sequence (VL, as listed by the source, chain 2 of 2): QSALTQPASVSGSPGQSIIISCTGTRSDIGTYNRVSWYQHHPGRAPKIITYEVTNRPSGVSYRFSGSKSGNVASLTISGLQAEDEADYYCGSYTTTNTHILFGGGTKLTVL
Source text: as §1, §2

| Binder | ELISA score 662 | Kd [4] | koff [4] | kon [4] | ELISA score 628 | ELISA score 913 | ELISA score [7] | further results |
| --- | --- | --- | --- | --- | --- | --- | --- | --- |
| B1 | 4 | – | – | – | – | – | – | ELISA score [1]: 4; binding result 116: no binding |
| B2 | – | – | – | – | – | – | – | Kd [2]: 1.92 nM; koff [2]: 0.000146 s⁻¹; kon [2]: 75900 M⁻¹ s⁻¹; binding result [3]: no binding |
| B3 | – | 0.83 nM | 3.8e-05 s⁻¹ | 45400 M⁻¹ s⁻¹ | 4 | 4 | 4 | Kd [5]: 3 nM; koff [5]: 9.9e-05 s⁻¹; kon [5]: 33200 M⁻¹ s⁻¹; ELISA score [6]: 4 |
| B4 | – | – | – | – | 4 | 4 | 4 | – |
| B5 | – | 1.78 nM | 0.000134 s⁻¹ | 74900 M⁻¹ s⁻¹ | – | – | – | – |
| B6 | 4 | – | – | – | – | – | – | binding result 647: no binding; binding result [1]: no binding; ELISA score 116: 4 |

Source: patent US20070134248A1 (GENITOPE, published 2007)
